The RNAGym collection of RNA variant scans (doi:10.7554/elife.80360)

B1: HDV Ribozyme (parent)
chain: GGCCGGCAUGGUCCCAGCCUCCUCGCUGGCGCCGGCUGGGCAACAUUCCGAGGGGACCGUCCCCUCGGUAAUGGCGAAUGGGACCCA

Variants of: B1
Assay: self-cleavage, relative activity (ratio to wild type); higher = more cleavage; co-transcriptional

Variant | self-cleavage
C3U G76A | 0.908
U60C G82U | 0.495
U47A G81A | 0.341
C19A U23G | 0.0923
U47A A56G | 0.965
G6A G34A | 0.0287
G25U C66A | 0.172
C19U A45C | 0.0767
G34A C62G | 0.13
C14A U72C | 0.378
G54C G82A | 0.226
U23G U60C | 0.831
G10U G68A | 0.584
G39A C86A | 0.53
C18G G34A | 0.136
G52A C62G | 0.397
G73A A83G | 0.511
U72G A77G | 0.178
G6U A77C | 0.332
C61A U72C | 0.686
A8C C84G | 0.208
U12A G17C | 0.0504
G10U G76U | 1.14
A77C A78G | 0.151

Variant | self-cleavage
U12C G82U | 0.104
G76U G82U | 0.483
C33A C57G | 0.332
C15A G31C | 0
A43G C75G | 0.161
G25U C33U | 0.0831
G67C C85U | 0.92
U23G C85U | 0.898
C44A A51G | 0.898
A43G A71C | 1.01
G11A U65C | 0.277
C63A A70G | 0.767
C33G A77C | 0.115
G2A A8C | 0.106
U23G C75U | 0.089
C30U C33A | 0.0268
U69G A87U | 1.06
G38A C58G | 0.141
C3U G39A | 0.21
U37A G39A | 0
C26U C36U | 0.975
C14A G40C | 0.185
A51G A78U | 0.156
G5C G17A | 0.0852

Variant | self-cleavage
C15A G59A | 0.543
A8U U20G | 0.166
C48U G80C | 0.243
C22A G59C | 0.361
A43U C66A | 0.415
C63A C84U | 0.717
C7U G54C | 0.884
G29C U47C | 0.0554
A77C C86G | 0.302
G54A A83U | 0.509
U65G G73A | 0.363
C13A A43G | 0.0831
G29A G81C | 0.0314
C57G C63U | 1.12
C62A G82C | 0.271
G5C U60G | 0.185
C30A C48A | 0.635
G10A A70C | 0.48
C15G C86U | 0.791
C3G C58U | 0.709
G2A G38U | 0.0373
C14A U60C | 0.485
G28U G35C | 0.13
G29A G52C | 0.197

Variant | self-cleavage
G11U C30U | 0.0923
C3U G74U | 0.241
A43C A70C | 0.35
G76U U79A | 0.984
C13A C57U | 0.175
G31A G55A | 0.376
C62U G82A | 0.338
C13U A45U | 0.198
G74A G82A | 0.0656
C21A A70C | 0.0426
C4G A42U | 0.0875
G39A G55A | 0.683
C15A A43C | 0.0554
U23A G74C | 0.323
C3U C49U | 0.762
U20C U37C | 0.252
U60A U72A | 0.739
U27A G81A | 0.914
A51U G53A | 0.927
G59C C63U | 1.11
C64A A71G | 0.529
C33A G55C | 0.181
G40C C44A | 0.0468
C3U A45U | 0.432

Variant | self-cleavage
G73U C84U | 0.256
U12A C33G | 0
G40A A77C | 0.427
C15U U65A | 0.831
G17A C86A | 0.538
C14G U27C | 0.727
C41U A71C | 0.644
U27C A70C | 0.604
G68A C85U | 0.95
G2A C26G | 0.166
C22A G40U | 0.0978
C13G C32G | 0
A51G C75U | 0.217
G1A G52U | 0.162
G31C C57U | 0.445
C3G A16G | 0.408
A8U C14A | 0.192
C18A G53U | 0.117
A56C C61U | 0.942
C13U C22G | 0.0831
C14U G50U | 1.09
C44A A87G | 0.649
C4U G10A | 0.35
G1U A78G | 0.346

Variant | self-cleavage
C21G C48U | 0.0707
G17A U23C | 0.462
C64U G80U | 0.247
G35C G40U | 0.145
U23G U79C | 0.125
C30G G76C | 0.117
U46A G74A | 0.519
C64A G76U | 0.858
G10C C58U | 1.23
C13G G39U | 0.0361
G39C C44U | 0.0707
A16C G34U | 0.0489
C61U A87U | 0.959
U12A C14G | 0.145
C44U A78C | 0.113
A16G C61U | 1.26
C7G G55A | 0.302
G59A U79A | 0.884
G25A G38U | 0.0744
G59C U65G | 0.95
C7U C84G | 0.527
C30U C85U | 0.787
C58U G74U | 0.51
U37C A45U | 0.639

Variant | self-cleavage
A51C A70G | 0.849
U27C G50A | 0.733
C15A A42U | 0.269
C64G G81C | 0.208
G6C C86G | 0.131
G31A U79C | 0.11
C18G A70C | 0
C61U G74C | 0.253
G1C U12A | 0
A16G G31C | 0.208
C21A U27C | 0.0519
A43G C86G | 0.727
G38C A83G | 0.201
G10C U20A | 0.0519
C26U G34A | 0.36
G38C U46G | 0.095
G10C C30U | 0.208
C15U G35C | 0.0723
C4G G59A | 0.198
C44U A56U | 0.748
C7U G25A | 0.212
G35A A70U | 0.62
C41A U65G | 0.95
